Patent USRE47150 (Bayer, dated 2018)
Positions count from the first letter of the chain named. In names and notes the source's numbering stands.

T1: human tissue factor pathway inhibitor (TFPI) (human, UniProt P10646 29-304, limits assumed)
T1 construct: bought; also called hTFPI; human TFPI
T1 sequence (looked up): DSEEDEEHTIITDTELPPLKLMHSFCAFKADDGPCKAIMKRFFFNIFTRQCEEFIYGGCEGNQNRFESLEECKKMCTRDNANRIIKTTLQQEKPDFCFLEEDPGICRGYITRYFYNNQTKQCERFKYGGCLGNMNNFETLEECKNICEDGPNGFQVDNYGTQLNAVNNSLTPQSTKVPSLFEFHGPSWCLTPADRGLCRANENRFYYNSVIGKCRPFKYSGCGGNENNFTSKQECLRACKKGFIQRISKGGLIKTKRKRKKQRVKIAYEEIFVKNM

T2: mouse tissue factor pathway inhibitor (TFPI) (mouse, UniProt O54819 29-289, limits assumed)
T2 construct: bought; also called mTFPI; murine TFPI
T2 sequence (looked up): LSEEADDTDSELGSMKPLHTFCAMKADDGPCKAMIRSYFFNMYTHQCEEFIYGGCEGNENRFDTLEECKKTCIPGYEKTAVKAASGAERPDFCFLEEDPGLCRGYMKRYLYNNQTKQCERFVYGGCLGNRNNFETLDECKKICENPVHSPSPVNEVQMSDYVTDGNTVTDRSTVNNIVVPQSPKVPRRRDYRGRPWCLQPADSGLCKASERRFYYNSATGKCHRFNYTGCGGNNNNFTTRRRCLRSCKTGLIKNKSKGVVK

B1: 2A8 LC_A32N (Fab, V domains shown)
VH: QVQLVESGGGLVQPGGSLRLSCAASGFTFRSYGMSWVRQAPGKGLEWVSSIRGSSSSTYYADSVKGRFTISRDNSKNTLYLQMNSLRAEDTAVYYCARKYRYWFDYWGQGTLVTVSS
VL: DIELTQPPSVSVAPGQTARISCSGDNLRNYYNHWYQQKPGQAPVVVIYYDNNRPSGIPERFSGSNSGNTATLTISGTQAEDEADYYCQSWDDGVPVFGGGTKLTVLG
notes: also called 2A8-11
B2: 2A8 HC_S55R (Fab, V domains shown)
VH: B1 VH with S55R
VL: B1 VL with N32A
notes: also called 2A8-8
B3: 2A8 LC_N51V (Fab, V domains shown)
VH: B1 VH
VL: B1 VL with N32A, N51V
notes: also called 2A8-13
B4: 2A8 HC_I51D (Fab, V domains shown)
VH: B1 VH with I51D
VL: B1 VL with N32A
notes: also called 2A8-12
B5: B18.5 (4B7 HC N32D+D62Q+Y112D/LC F31I+D33F+N35I) (Fab, V domains shown)
VH: QVQLQQSGPGLVKPSQTLSLTCAISGDSVSSDSAAWSWIRQSPGRGLEWLGIIYKRSKWYNQYAVSVKSRITINPDTSKNQFSLQLNSVTPEDTAVYYCARWHSDKHWGFDDWGQGTLVTVSS
VL: DIVMTQSPLSLPVTPGEPASISCRSSQSLVISFGITYLNWYLQKPGQSPQLLIYKGSNRASGVPDRFSGSGSGTDFTLKISRVEAEDVGVYYCQQYDSYPLTFGQGTKVEIKR
B6: B41.2 (4B7 HC N32D+D62R+Y112D/LC S32R+D33F+N35I) (Fab, V domains shown)
VH: B5 VH with Q62R
VL: B5 VL with I31F, S32R
B7: B27.1 (4B7 HC N32D+D62R+Y112D/LC N35T+D97T) (Fab, V domains shown)
VH: B5 VH with Q62R
VL: B5 VL with I31F, F33D, I35T, D97T
B8: gB9.7 (4B7 HC Q1E+N32D+G44S+K55Y+D62R+Y112D/LC S32R+N35I) (Fab, V domains shown)
VH: B5 VH with Q1E, G44S, K55Y, Q62R
VL: B5 VL with I31F, S32R, F33D
B9: B32.5 (4B7 HC D62R+Y112D/LC D33F+N35I) (Fab, V domains shown)
VH: B5 VH with D32N, Q62R
VL: B5 VL with I31F
B10: 2A8 HC_F104Y (Fab, V domains shown)
VH: B1 VH with F104Y
VL: B1 VL with N32A
B11: 2A8 LC_P54L (Fab, V domains shown)
VH: B1 VH
VL: B1 VL with N32A, P54L
B12: 2A8 HC_S54D (Fab, V domains shown)
VH: B1 VH with S54D
VL: B1 VL with N32A
B13: 2A8 LC_V96W (Fab, V domains shown)
VH: B1 VH
VL: B1 VL with N32A, V96W
B14: 2A8 LC_N52G (Fab, V domains shown)
VH: B1 VH
VL: B1 VL with N32A, N52G
B15: 2A8 LC_D92T (Fab, V domains shown)
VH: B1 VH
VL: B1 VL with N32A, D92T
B16: 2A8 LC_V96G (Fab, V domains shown)
VH: B1 VH
VL: B1 VL with N32A, V96G
B17: 2A8 HC_S55A (Fab, V domains shown)
VH: B1 VH with S55A
VL: B1 VL with N32A
B18: 2A8 LC_D91R (Fab, V domains shown)
VH: B1 VH
VL: B1 VL with N32A, D91R
B19: 2A8 HC_G33K (Fab, V domains shown)
VH: B1 VH with G33K
VL: B1 VL with N32A
B20: 2A8 LC_V96M (Fab, V domains shown)
VH: B1 VH
VL: B1 VL with N32A, V96M
B21: 2A8 HC_S35L (Fab, V domains shown)
VH: B1 VH with S35L
VL: B1 VL with N32A
B22: 2A8 LC_D92S (Fab, V domains shown)
VH: B1 VH
VL: B1 VL with N32A, D92S

target: T1, human tissue factor pathway inhibitor …; assay: SPR, TFPI immobilized

Row | Improvement [fold] | Kd [nM] | koff [s⁻¹] | kon [M⁻¹ s⁻¹] | Binder
1 | 1.47 | 1.52 | 0.0041 | 2.7e+06 | B1
2 | 2.44 | 0.917 | 0.00394 | 4.3e+06 | B2
3 | 4.32 | 0.518 | 0.0022 | 4.26e+06 | B3
4 | 1.63 | 1.37 | 0.00495 | 3.61e+06 | B4

target: T2, mouse tissue factor pathway inhibitor …; assay: SPR, TFPI immobilized

Row | KD fold improvement [fold] | Kd [nM] | koff [s⁻¹] | kon [M⁻¹ s⁻¹] | Binder
5 | 139 | 0.395 | 0.00043 | 1.09e+06 | B5
6 | 1060 | 0.0519 | 0.000245 | 4.73e+06 | B6
7 | 299 | 0.183 | 0.000742 | 4.06e+06 | B7
8 | 275 | 0.199 | 0.000185 | 929000 | B8
9 | 528 | 0.104 | 0.000468 | 4.52e+06 | B9

target: T1, human tissue factor pathway inhibitor …; assay: competitive ELISA

Row | variant/HC_D62R [ratio] | Binder
10 | 22.4 | B5
11 | 29.7 | B6
12 | 26 | B7
13 | 22.6 | B8
14 | 20.3 | B9

target: T2, mouse tissue factor pathway inhibitor …; assay: competitive ELISA

Row | variant/HC_D62R [ratio] | Binder
15 | 14 | B5
16 | 42 | B6
17 | 9.5 | B7
18 | 25.5 | B8
19 | 20.8 | B9

target: T1, human tissue factor pathway inhibitor …; assay: competitive ELISA; remark: another data set of the same source

Row | variant/wild-type [ratio] | Binder
20 | 2 | B10
21 | 5.3 | B11
22 | 1.7 | B12
23 | 4 | B13
24 | 3.4 | B14
25 | 3.5 | B1
26 | 4.4 | B2
27 | 4.4 | B3
28 | 2.6 | B15
29 | 3.2 | B16
30 | 3.9 | B4
31 | 2 | B17
32 | 3.1 | B18
33 | 1.8 | B19
34 | 3.5 | B20
35 | 1.7 | B21
36 | 3.8 | B22

target: T2, mouse tissue factor pathway inhibitor …; assay: competitive ELISA; remark: another data set of the same source

Row | variant/wild-type [ratio] | Binder
37 | 1.5 | B10
38 | 2.7 | B11
39 | 1.2 | B12
40 | 4.3 | B13
41 | 1.5 | B14
42 | 2 | B1
43 | 2.1 | B2
44 | 2 | B3
45 | 1.2 | B15
46 | 1.2 | B16
47 | 1.4 | B4
48 | 1.2 | B17
49 | 2 | B18
50 | 0.7 | B19
51 | 1.5 | B20
52 | 1.5 | B21
53 | 2.6 | B22

target: T1, human tissue factor pathway inhibitor …; assay: SPR, TFPI immobilized; remark: another data set of the same source

Row | KD fold improvement [fold] | Kd [nM] | koff [s⁻¹] | kon [M⁻¹ s⁻¹] | Binder
54 | 428 | 0.026 | 3.18e-05 | 1.23e+06 | B5
55 | 1550 | 0.00716 | 2.47e-05 | 3.46e+06 | B6
56 | 875 | 0.0127 | 3.53e-05 | 2.78e+06 | B7
57 | 1090 | 0.0102 | 9.55e-06 | 938000 | B8
58 | 749 | 0.0148 | 3.19e-05 | 2.15e+06 | B9
